The supplement of paper PMC9170038

Tested on: K4 kissing-loop RNA reporter
Assay: apparent KD of K4 kissing-loop reporter; higher = weaker reporter binding
Conditions: Eterna round: R107
Description: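 RNA-MaP round R107: designed RNA switches with theophylline, tryptophan, arginine or FMN aptamers are transcribed on-chip within common flanks. They are titrated with a labelled K4 kissing-loop RNA reporter in RNA-MaP buffer (100 mM Tris pH 7.5, 80 mM KCl, 4 mM MgCl2), without ligand or with the indicated ligand. Median apparent KD per design.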

[1] = input ligand: theophylline 20 uM
[2] = input ligand: tryptophan 2.4 mM
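Further: bound reporter read as fluorescence of individual clusters on recovered sequencing chips by microscopy, with normalized cluster intensities fitted with a binding model.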

Row | Sequence | apparent KD of K4 kissing-loop reporter (input ligand: FMN 200 uM) [nM] | apparent KD of K4 kissing-loop reporter (input ligand: arginine 13.2 mM) [nM] | apparent KD of K4 kissing-loop reporter (input ligand: none) [nM] | apparent KD of K4 kissing-loop reporter [1] [nM] | apparent KD of K4 kissing-loop reporter [2] [nM]
1 | UAUUAAUUGUCAGGAUAUCGUAUUCGAGUGAUGUUCGUAUAUCGACGAUAGUCGAUUCUAUCUAUACGAGAAGGGACAUUAUUUA [JR_SSFMNB_Sub007] | 801 | 711 | 1090 | 804 | 755
2 | UAUUCUGUUCGAAAGAACGGAAUUUCGGAAGGAGCGAGAGAAAUCUCAGGUAGGUCGCCGAAAUUAUUAGAUAGUGAUGUUAUCU [Arginine A K4 4] | 162 | 110 | 135 | 177 | 158
3 | UCAGAGAACGAAGGAUAUUGACCUGUUUUAUGCUAUGAGUGAUGUUCUUAGUAUCAGCGAGAUGAUCAAGAAGGUCGGGUUCGAC [theeternabot_sameState_KL_FMN_B_48] | 125 | 174 | 197 | 183 | 152
4 | UCAUCAUGAUGGUAGUAACCGCAUUGGGAGCGAGGACCGGUACGGCCGCCACUCGAAAUGUACAUAGCAGUAGUGAUGUUGCUGC [theeternabot_sameState_KL_Trp_A_47] | 134 | 125 | 121 | 116 | 115
5 | UCAUGAAAGACGGCCGCCACUGAUGCUGGAGUGAUGUUUCGGACAUAGUAGAGUGAUGUUCUGCGCAGGACCGGGUCGUCAUGAA [KL-SSTryp-B10 #double Kiss] | 132 | 64.6 | 134 | 130 | 62
6 | UCCUACGAGGUAACGUGGAUAUCUCGUUGCAAGGAUAUCUGGAAACAGAGAAGGUGCAACAUUAUCGGCAGUGAUGUUGCUGACC | 711 | 242 | 482 | 385 | 280
7 | UCCUAGGCUCGAAAGAGCCUAGGUUAGACUCAGGAUAUCUGGAAACAGAGAAGGGAGCUACUAGUGAUGUUAGGAAUUCCCAUUU | 102 | 85.7 | 97.5 | 88.5 | 95.6
8 | UCCUAGGUUCGUCGGCGAAAGCCCUGCGAAGGAGCGUGCGAAAGUACAGGUAGGUCGCGCAGUGAUGUUGCACCUAGGUAAUAAA [#07 K4 Arginine A Exclusion] | 905 | 191 | 319 | 892 | 375
9 | UCCUGCAAUCCACCACGAAAGUGGAUGGAUACCAGAGUCGAAAGACUCCCUUGGCAGCCAGUGAUGUUGGAGCAGGUAAAAUAAA | 526 | 532 | 630 | 402 | 473
10 | UCCUGCAAUCGACCACGAAAGUGGAUCGAUACCAGAGUCGAAAGACUCCCUUGGCAGCGAGUGAUGUUCGAGCAGGUAAAAUAAA [#SwitchBubble 23 #K4Late] | 713 | 461 | 446 | 406 | 486
11 | UCCUGCAAUCGUCCACGAAAGUGGAUCGAUACCAGAGUCGAAAGACUCCCUUGGCAGCGAGUGAUGUUCGAAGCAGGUAAAUAAA | 487 | 387 | 466 | 548 | 391
12 | UCCUGCUGUCUGCCACGAAAGUGGAUUGAUACCAGAGUCGAAAGACUCCCUUGGCAGCGAGUGAUGUUCGAAGCAGGUAAAUAAA [MatMod 2 - Jieux - Exclusion - Theophylline A] | 210 | 215 | 234 | 220 | 188
13 | UCGAAGGAUGGAAGGAGCGCUCGUCAGUCCUGCGAGUGAUGUUCGUGGGUAAAUAGUCGCGAGCAGGUAGGUCGCCAUCUUGAGC [Laxe] | 139 | 102 | 114 | 126 | 109
14 | UCGAAGGAUGGAAGGAGCGCUCGUCAGUCCUGCGAGUGAUGUUCGUGGGUAAAUAUUCGCGAGCAGGUAGGUCGCCAUCUCGAAC [Erbemaa] | 149 | 103 | 141 | 122 | 117
15 | UCGCAAAAGUCGGCCGCCACUCCGGGCCCUAUAAAUGGGCGCAGUGAUGUUGCGGCUAGGCCUCUGAGGACCGGGACUUUGAAGA [Esesbior] | 101 | 25 | 23.9 | 102 | 131
16 | UCGCCAAAGUCGGCCGCCACUCCGGGCCCUAUAAAUGGGCGCAGUGAUGUUGCGGCUAGGCCUCUGAGGACCGGGACUUUGUAAA [Tiesgeza] | 119 | 85.2 | 68.9 | 32.5 | 133
17 | UCUGGAGCAUAUGAUACCAGCAGUGAGAGACAGGAAGUAUAGUGAUGUUAUAUGAGAGAAUGCCCUUGGCAGCGUGUGUAGUGGG [SSTheophylB.N] | 174 | 137 | 128 | 170 | 104
